Two molecules from patent publication US20240247066A1 (published 2024) can be followed below.

One test has as its target NY-ESO1/A2 (;human, UniProt A*02:01, biotin on the biotinylation tag (BirA)). Briefly: SPR. In general terms: Surface plasmon resonance follows binding to a sensor surface in real time, without labels.
In a further test the target is Trp2/H-2Kb (;mouse, biotin on the biotinylation tag (BirA)). Briefly: SPR.

B1: N5 (scFv)
chain: EVQLLESGGGLVQPGGSLRLSCAASGFTFSTYQMSWVRQAPGKGLEWVSGIVSSGGSTAYADSVKGRFTISRDNSKNTLYLQMNSLRAEDTAVYYCAGELLPFYGMDYWGQGTTVTVSQSELTQPRSVSGSPGQSVTISCTGTLRDVGGYNYVSWYQQHPGKAPKLIIHDVIERSSGVPDRFSGSKSGNTASLTISGLQAEDEADYYCWSAAMAYGVFGTGTDVTVL
Take B1: binding with NY-ESO1/A2 was put at a Kd of 2 nM.

B2: IgG2a #13 (antibody, V domains shown)
VH: EVLLQQSGPELVKPGASVKIPCKASGYTFTDYYMDWVKQSHGKSLEWIGLINPNNGGTVYNQKFKGKATLTVDKSSSAAYMEVRSLTSEDTAVYYCARKPYTGHPAWFAYWGQGTLVTVSA
VL: DIQVTQSSSSFSVSLGDRVTITCKASEDIYNRLAWYQQKPGNAPRLLISGATSLETGVPDRFSGSGSRKDYTLIITSLQTEDVATYYCQQYYAFPLTFGAGTKLELK
In the case of B2, the Kd with Trp2/H-2Kb amounted to 2.5 nM.

Broadly, the Kd is the free concentration of one partner at which half of the binding sites on the other are occupied at equilibrium, for simple one-to-one binding.
